Assay results as given in patent publication US6730828B1, “Isolated nucleic acids encoding a wheat glutathione transferase, plants transformed therewith and methods of use thereof” (Aventis Agriculture Limited, priority 1997, dated 2004).

B1: WIC 1: recombinant type I wheat GST, SEQ ID No. 3, amino acid SEQ ID No. 4 (protein)
chain: MAAPAVKVYGWAMSPFVARALLCLEEAGVEYELVPMSREAGDHRQPDFLARNPFGQVPVLEDGDLTIFESRAVARHVLRKHKPELLGSGSPESAAMVDVWLEVEAHQHQTPAGTIVMQCILTPFLGCQRDQAAIDENAAKLTNLFDVYEARLSASRYLAGEAVSLADLSHFPFMRYFMDTEYASLVEERPHVKAWWEEFKASPAAKRVTEFMPPNFGFGKKAEK
modifications: Triticum aestivum L.
B2: TaGST1-2: wheat GST isoenzyme, heterodimer of TaGST1 and 26 kDa TaGST2 subunits (SEQ ID No. 2/SEQ ID No. 16) (protein)
chain 1: MAGEKGLVLLDFWVSPFGQRVRIALAEKGLPYEYAEEDLMAGKSDRLLRANPVHKKIPVLLHDGRAVNESLIILQYLEEAFPDAPALLPSDPYARAQARFWADYVDKKVYDCGSRLWKLKGEPQAQARAEMLDILKTLDGALGDKPFFGGDKFGFVDAAFAPFTAWFHSYERYGEFSLPEVAPKIAAWAKRCGERESVAKSLYSPDKVYDFIGLLKKKYGIE
chain 2: MAGDGELKLLGVWTSPFVIRVRVVLNLKSLPYEYVEESLGSKSALLLGSNPVHQSVPVLLHGGRPVNESQVIVQYIDEVWAGAGPSVLPADPYERATARFWAAYVDDKVGSAWTGMLFSCKTEEERAEAVSRAVAALETLEGAFAECSKGKAFFGGDAIGFVDVVLGGYLGWFGAIDKIIGRRLIDPARTPLLARWEERFRAADAAKGVVPDDADKMLEFLPTVLAWIAGKAK
modifications: heterodimer; Triticum aestivum L.
B3: TaGST1: recombinant wheat GST from TaGST1 cDNA (SEQ ID No. 1, amino acid SEQ ID No. 2) expressed in E. coli (protein)
chain: B2 chain 1
modifications: Triticum aestivum L.
B4: TaGST1-3: wheat GST isoenzyme, heterodimer of TaGST1 and 26 kDa TaGST3 subunits (SEQ ID No. 2/SEQ ID No. 18) (protein)
chain 1: B2 chain 1
chain 2: MAGGEELKLLGWWAPGVSPYVLRAQMALAVKGLSYDYLPEDRWSTSDLLIASNPVYKKVPVLIHNGRPVCESLLILEYLDDAVGLAGNGKPILPADPYSRAVARFWAAYVNDKLFPSCTGILKTTKQEERAGKMEETLSGLRHLEAVMAECSEGEAEAPFFGGDAIGFLDIALGCYLPWFEAAGRLAGLGPIIDPARTPKLAAWAERFSVAEPIKALLPGVDKLEEYITTALYPKWNIAVTGN
modifications: heterodimer; Triticum aestivum L.

Columns and labels:
[1] = GST activity toward herbicide metolachlor (HPLC-based assay); format: biochemical
Method: (§1) The purified isoenzymes were assayed for GST activity toward herbicides using the HPLC-based assays described by Edwards R. and Cole D. J. (Pesticide Biochemistry and Physiology Vol. 54, pp96-104 (1996)) and the results are presented in Table 2. […] These isoenzymes had additional activities as glutathione peroxidases able to reduce linoleic acid hydroperoxide, a major reaction product formed during membrane peroxidation in plants (Williamson and Beverly. J. Cereal Sci. 8, 1988, 155-163).
(§2) To assay the recombinant fusion proteins for GST activity, the E. coli were grown in the presence of IPTG and then pelleted by centrifugation. The bacteria were then lysed by sonication and the protein precipitated using 80% ammonium sulphate. After resuspension and desalting, GSTs were purified by affinity chromatography. The WIC 3 fusion protein was purified using sulphobromophthalein-S-glutathione affinity chromatography (Mozer et al. Biochem. 22, 1983, 1068-1072) while the other WIC fusion proteins were purified using glutathione-agarose (Mannervik and Guthenberg. Methods Enzymol. 77 1981, 231-235).The purified enzymes were then assayed for GST activities toward herbicides (Table 3) and GST activities toward non-herbicide substrates and glutathione peroxidase activities toward organic hydroperoxides (Table 4).
(§3) A polyclonal antiserum was raised in a rabbit to a mixture of TaGST1-2 and TaGST1-3. When tested against crude extracts from safener-treated wheat shoots the antiserum recognised both the 25 kDa TaGST1 subunit and the 26 kDa safener-inducible TaGST2 and TaGST3 subunits. The antiserum was then used in conjunction with the antiserum raised to TaGST1-1 to immuno screen the cDNA library prepared from fenchlorazole ethyl treated wheat shoots as described in example 1. Duplicate lifts were taken from the plated out library and the first blot screened with the antiserum raised against TaGST1-2 and TaGST1-3. The second blot was screened with the antiserum raised to TaGST1-1. Five plaques were identified from the first blot which were absent from the second blot corresponding to cDNAs encoding TaGST2 or TaGST3 like polypeptides and theses clones were purified and the respective plasmids sequenced. […] The other three clones ICC. ICP and ICV had identical DNA sequences (SEQ ID No. 17) and predicted amino acid sequence (SEQ ID No. 18). GST ICJ was sub-cloned into the pET 11a vector after using PCR to introduce a Nde 1 restriction site into the translation start site, using the primer 5′ AGGTAGTTACATATGGCCGGAGGA 3′ (SEQ ID No. 19) in the amplification. following sub-cloning, the sequence of GST ICJ was re-checked to ensure no PCR induced errors had been introduced. The recombinant GST ICJ was then expressed in E. coli and purified by S-hexylglutathione affinity chromatography. The purified GST ICJ was assayed for activities as a GST (Table 3) and as a glutathione peroxidase (Table 4). […] GST ICV was finally expressed as the respective beta-galactosidase fusion protein using the Bluescript plasmid and assayed for GST activity (Table 3 ) and glutathione peroxidase activity (Table 4) in crude bacterial lysates. The specific activity of GST ICV toward these substrates was then calculated by I) subtracting the low levels of GST and GPOX activity present due the endogenous activities in the E. coli and ii) determining the proportion of protein in the lysate present as recombinant GST ICV from SDS-PAGE analysis, by densitometry analysis of polypeptides stained with Coomassie blue.

[2] = GST activity toward herbicide fluorodifen (HPLC-based assay); format: biochemical
Method: as §1, §2, §3

[3] = Glutathione peroxidase activity toward cumene hydroperoxide; format: biochemical; conditions: recombinant wheat GST, affinity purified; ± standard error (n = 3)
Method: as §2, §3

[4] = GST activity toward benzyl isothiocyanate; format: biochemical; conditions: recombinant wheat GST, affinity purified; ± standard error
Method: as §2

[5] = GST activity toward crotonaldehyde; format: biochemical; conditions: recombinant wheat GST, affinity purified; ± standard error
Method: as §2

[6] = GST activity toward herbicide fenoxaprop-ethyl (HPLC-based assay); format: biochemical
Method: as §1, §2, §3

[7] = GST activity toward CDNB; format: biochemical
Method: as §1
To confirm that TaGST1 encoded a GST, it was expressed as a fusion protein with beta-galactosidase using the pBluescript plasmid in E. coli strain SOLR. TaGST1 clones were inoculated into LB liquid medium and were grown overnight at 37/C on all orbital shaker in the presence of IPTG. Bacteria were then pelleted by centrifugation, lysed by sonication and assayed for GST activity toward CDNB and analysed by SDS-PAGE and Western blotting using the anti-TaGSTI-I serum. With all six TaGST1 clones, GST activity toward CDNB could be determined in the crude extracts in the range 30-50 nkat/mg crude lysate.
as §2
as §3, with “The specific activity of GST ICV toward these substrates was then calculated by I) subtracting the low levels of GST and GPOX activity present due the endogenous activities in the E. coli and ii) determining the proportion of protein in the lysate present as recombinant GST ICV from SDS-PAGE analysis, by densitometry analysis of polypeptides stained with Coomassie blue.” left out

[8] = system: wheat shoots; test: Enhancement of GST isoenzyme expression in wheat shoots by safener fenchlorazole-ethyl; format: in vivo, Triticum aestivum L. var. Hunter; conditions: for % enhancement by safener: fenchlorazole-ethyl treated (safened) versus unsafened wheat shoots; for Effect of safener fenchlorazole-ethyl on expression: wheat shoots, in words
Method: Wheat seeds (Triticum aestivum L. var. Hunter) were imbibed in a 10 mg/l solution of the herbicide safener fenchlorazole-ethyl and then grown in an environmental growth room with further root-applied watering treatments of 5 mg/l fenchlorazole ethyl applied as required. At 10 days after imbibing, the shoot tissue was harvested and extracted prior to precipitation of the protein with ammonium sulphate (80% saturation). The total protein extract was then applied in the presence of 1 M ammonium sulphate to a phenyl-Sepharose column. The bound GSTs were then recovered, firstly by reducing the ammonium sulphate concentration to 0 M to yield the polar GST fraction, which represented 61% of the recovered activity toward 1-chloro-2,4-dinitrobenzene (CDNB). The remaining 39% of the GST activity was then recovered by adding ethylene glycol (50% v/v) to the running buffer to yield the hydrophobic GST fraction. […] The component polypeptides in the active fractions were then analysed by silver staining after resolution by sodium dodecyl sulphate polyacrylamide gel electrophoresis (SDS-PAGE). It was concluded that in fenchlorazole-ethyl-treated wheat the polar GSTs were composed of 25 kDa and 26 kDa polypeptides, while the hydrophobic fraction contained 25 kDa, 26 kDa and 24 kDa polypeptides. Further analysis by reversed-phase HPLC confirmed the subunit compositions (FIG. 2). Based on the combined analyses by Q-sepharose, HPLC and SDS-PAGE these GST polypeptides were named as described in Table 1, which also contains details of how these subunits associate together to form the active dimers found in plants and the relative abundance of these subunits in extracts from unsafened and fenchlorazole-ethyl treated ([…]) plants.

[9] = recombinant wheat GST expressed in E. coli, affinity purified, ± standard error
[10] = recombinant wheat GST expressed in E. coli, affinity purified
[11] = isoenzymes purified from fenchlorazole-ethyl-treated wheat shoots

% enhancement by safener [8] | Molecule | GST activity toward metolachlor [1, 9] [nkat.mg^−1] | GST activity toward fluorodifen [2, 9] [nkat.mg^−1] | Glutathione peroxidase activity toward cumene hydroperoxide [3] | GST activity toward benzyl isothiocyanate [4] [nkat.mg^−1] | GST activity toward crotonaldehyde [5] [nkat.mg^−1] | GST activity toward fenoxaprop-ethyl [6, 9] [nkat.mg^−1] | GST activity toward CDNB [7, 10] [nkat.mg^−1] | GST activity toward metolachlor [1, 11] [nkat.mg^−1] | GST activity toward fluorodifen [2, 11] [nkat.mg^−1] | Effect of safener fenchlorazole-ethyl on expression [8] | GST activity toward fenoxaprop-ethyl [6, 11] [nkat.mg^−1] | GST activity toward CDNB [7, 11]
– | B1 | 0.315 ± 0.003 | 0.136 ± 0.011 | 18.6 ± 0.5 absorbance change at 340 nm.mg^−1 | 18.0 ± 3.75 | 7.1 ± 0.7 | 0.050 ± 0.010 | 406.5 | – | – | – | – | –
Only | B2 | – | – | – | – | – | – | – | 0.25 | 0.38 | only observed following treatment with the safener | 0.61 | 1,441 nkat.mg^−1
– | B3 | 0.127 ± 0.014 | 2.0 ± 0.1 | 0.7 ± 0.1 absorbance change at 340 nm.mg^−1 | 11.8 ± 0 | 3.7 ± 0.3 | 0 | 1970 | – | – | – | – | –
Only | B4 | – | – | – | – | – | – | – | 0.28 | 0.38 | only observed following treatment with the safener | 0.44 | 1,700 nkat.mg^−1
